In patent US9340577B2, “HLA binding motifs and peptides and their uses” (priority 1992, dated 2016):
No end group written: not given here.

Target: HLA-A*0201 (HLA-A2.1) (Homo sapiens, UniProt P04439, D140Y/D185E/D98H/E176V/E277Q/G131W/G231S/I119V/I121R/I166T/I218V/L300P/L318F/N151K/N90K/P208A/P217A/Q86G/Q94H/R138H/R169H/T345S)
Assay: biochemical
Format: binding

Substance	A2.1 Binding	binding to HLA-A2.1 (column 3; no allele head shown for these rows)	A2.1	A*0201	IC50 [nM]
11546 (SLLPAIVEL) [Peptide 11546]	0.19				
AALREEEEGV		0			
AATSSSSPLV		0			
AISRKMVELV			0		
ALEAQQEA			0		
ALEAQQEAL			<0.0003		
ALEAQQEALGL		0.0001			
ALNKMFBQV [Peptide 1323.04]				0.0260	
AMBRWGLLV [Peptide 1334.08]				0.1400	
ATSSSSPLV		0.0007			
ATSSSSPLVL		0			
ATVGIJIGV [Peptide 1345.02]				0.1595	
AVITKKVA		0			
AVITKKVAD			<0.0002		
AVITKKVADL			0		
AVITKKVADLV		0			
BLLAKTBPV [Peptide 1329.15]				0.1100	
BLTIHYNYV [Peptide 1323.08]				0.0430	
BQLAKTBPV [Peptide 1329.14]				0.0490	
CILESLFRAV			0.0003		
CILESLFRAVI		0.0030			
CKPEEALEA			<0.0002		
CLGLSYDGLL			0		
CLLAKTCPV [Peptide 1326.01]				0.0400	

Substance	A2.1 Binding	binding to HLA-A2.1 (column 3; no allele head shown for these rows)	A2.1	A*0201	IC50 [nM]
CQLAKTCPV [Peptide 1324.07]				0.0240	
DLESEFQAA		0			
DLESEFQAAI		0			
DLESEFQAAISRKMV		0			
DLQQSLRVL			0		
DLVGFLLL			0		
DLVQEKYL			0		
DLVQEKYLEYRQV		0			
DPTGHSYVL			<0.0002		
EADPTGHSYV		0			
EALEAQQEA		0			
EALGLVCVQA		0.0005			
EAQQEALGLV		0			
EIFGKASESL			0		
EIWEELSV		0			
EIWEELSVM		0			
ELSVMEVYD			<0.0002		
EVDPIGHLYI		<0.0002			
EVVPISHLYI		<0.0002			
FLIIVLVM			0		
FLIIVLVMI			0.0005		
FPTTINFTR			<0.0002		
GIDVKEADPT		0			
GIELMEVDPI		<0.0002			

Substance	A2.1 Binding	binding to HLA-A2.1 (column 3; no allele head shown for these rows)	A2.1	A*0201	IC50 [nM]
GIEVVEVVPI		<0.0002			
GKASESLQL			<0.0002		
GLLGDNQI			0		
GLSYDGLL			0.0001		
GLSYDGLLV		0.0047			
GLYDGMEHV [Peptide 1586.08]					155
GLYDGREHTV [Peptide 1586.06]					144
GMCCPDLSPV [Peptide 41.0157]				0.0950	
GREHSAYGE			<0.0002		
GVQGPSLKPA			0.0001		
GVQGPSLKPAM		0			
HAPEEEIWE			<0.0002		
IIAIEGDCA		0			
IIAREGDCA		0			
IIVLVMIA		0.0002			
IIVLVMIAM		0.0007			
IJIGVLVGV [Peptide 1345.01]				0.0570	
ILESLFRAV			0.0004		
ILESLFRAVI			0.0002		
IMPKAGLLI		0.0064			
IMPKAGLLII		0.0015			
IMPKTGFL			0.0001		
ITKKVADLV		0			
IVLVMIAM		0.0001			

Substance	A2.1 Binding	binding to HLA-A2.1 (column 3; no allele head shown for these rows)	A2.1	A*0201	IC50 [nM]
KAEMLGSVV		0			
KAGLLIIVLA		<0.0002			
KASESLQLV		0.0009			
KASEYLQLV		0.011			
KLLTQDLV			0.0004		
KLLTQDLVQEKYL		0.0060			
KLPGLLSRDL			0		
KTGFLIIVL		0.0006			
KTGFLIIVLV		0.0012			
KTGLLIIVLA		<0.0002			
LAETSYVKV		0			
LIIVLVMI		0.0001			
LIIVLVMIA		0			
LIIVLVMIAM		0.0003			
LLGDNQIM			0		
LLIIVLAIIA		<0.0002			
LLKYRAREPV			0		
LLSRDLQQSL			0.0007		
LQLVFGIDV		0.0004			
LVFGIELJEV [Peptide 1345.04]				0.7650	
LVGFLLLKYRA		0.0004			
LVMIAMEGG			<0.0002		
LVMIAMEGGHA		0.0005			
MIAMEGGHA		0.0005			

Substance	A2.1 Binding	binding to HLA-A2.1 (column 3; no allele head shown for these rows)	A2.1	A*0201	IC50 [nM]
MLGSVVGNWQYFFPV		0.012			
MSSCGVQGP			<0.0002		
PIGHLYIFA		0			
PKTGFLIIV			<0.0002		
PLVLGTLEE			<0.0002		
PLVLGTLEEV			0.0008		
PQSPQGASA			<0.0002		
PRKLLTQDL			<0.0002		
PTGHSYVLV		0			
PTGHSYVLVT		0			
PVTKAEML			0		
PVTKAEMLESV		0			
QAAISRKMV		0			
QAALSRKVA		0			
QIMPKAGLL			0		
QIMPKTGFL			0.0007		
QIMPKTGFLI		0.0009			
QLVFGIDV			0		
QLVFGIDVKEA		0.0001			
QQEALGLVC			<0.0002		
QRQPSEGSS			<0.0002		
QVMPKTGLL		0			
RAREPVTKA		0			
RAVITKKVA		0			

Substance	A2.1 Binding	binding to HLA-A2.1 (column 3; no allele head shown for these rows)	A2.1	A*0201	IC50 [nM]
RCRTVIPHA			<0.0002		
RKLLTQDLV		0			
RVRFFFPSL		0.0001			
SAFPTTINFT		0			
SESLQLVFGI		0			
SJPPPGTRV [Peptide 1345.03]				0.0545	
SLFRAVITKKV		0.0001			
SLFRAVITKKVADLV		0.0004			
SLHCKPEEAL			0.0002		
SLRVLAAGL			0.0001		
SLSAYIIRV [Peptide 1577.43]					40
SREEEGPST			<0.0002		
STSCILESL		0.0002			
TLEEVPTA			0		
VIFSKASSSL			0		
VITKKVADL			<0.0003		
VITKKVADLV			0		
VLEYVIKVSA		0.0002			
VLGTLEEVPT		0.0004			
